Assay results as given in the supplement of paper PMC9170038.

Assays:
MS2 coat protein [1] = assay: apparent KD of MS2 coat protein, switch ON state; designed switch direction (-1 OFF switch, 1 ON switch): -1; higher = weaker reporter binding; settings: FMN input: 0 or 200 uM; Eterna round: R93 (includes R88 designs)
Method in brief: (§1)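 Apparent KD stands for the median, per design, of fits to normalised cluster binding curves. The curves came from titrating on-chip-transcribed RNA switches on Illumina sequencing clusters with SNAP-549-labelled MS2 coat protein, twofold from 0.7 or 1.5 nM to 3 µM. Buffer was 100 mM Tris-HCl pH 7.5, 80 mM KCl, 4 mM MgCl2, without or with constant ligand.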

MS2 coat protein [2] = assay: apparent KD of MS2 coat protein, switch OFF state (with FMN for OFF switches, without FMN for ON switches); designed switch direction (-1 OFF switch, 1 ON switch): -1; higher = weaker reporter binding; settings: FMN input: 0 or 200 uM; Eterna round: R93 (includes R88 designs)
Method in brief: as §1

Sequence: AAAUUGUCAGGAUAUCGUAUAACUGGGAAAACCAGGAGAUACGAGAAGGGACAUGAGGAUCACCCAUGUAAAAC [May 94]
- apparent KD of MS2 coat protein (MS2 coat protein [1]): 51.6 nM
- apparent KD of MS2 coat protein (MS2 coat protein [2]): 65.8 nM

Sequence: AACAAACAUGAGGAUCACCCAUGUAAGGAUAUACGAAACAAACAAACAAACAAACAAAGUAGAAGGUACAGGAA [Exclusive 1]
- apparent KD of MS2 coat protein (MS2 coat protein [1]): 17.3 nM
- apparent KD of MS2 coat protein (MS2 coat protein [2]): 16.3 nM

Sequence: AACAAACAUGAGGAUCACCCAUGUAAGGAUAUGCGACAAAAACAAAAAACAAAAAAAAGCAGAAGGUACAACAA [Amethyst 100]
- apparent KD of MS2 coat protein (MS2 coat protein [1]): 23.4 nM
- apparent KD of MS2 coat protein (MS2 coat protein [2]): 30.4 nM

Sequence: AACAAAUGAGGAUAUACAAACAAAAAAAACAAACAAAACAAACAUGAGGAUCACCCAUGUAGAAGGCAUAAACA [JR_Exc002_Sub901]
- apparent KD of MS2 coat protein (MS2 coat protein [1]): 24.8 nM
- apparent KD of MS2 coat protein (MS2 coat protein [2]): 24.5 nM

Sequence: AACAAGACAGGAUAUACAUGAGGAUCACCCAUGUCACAACAAAGCAGCGCAACACAAAGUAGAAGGGUCAUGGA [Ruby 11]
- apparent KD of MS2 coat protein (MS2 coat protein [1]): 81.2 nM
- apparent KD of MS2 coat protein (MS2 coat protein [2]): 82.6 nM

Sequence: AACAGACAUGAGGAUCACCCAUGUGAGGAUAUCCAAAACGAUAAAACAAGAAUGACAGGGAGAAGGCACAGCAA [JR_Exc001_Sub008]
- apparent KD of MS2 coat protein (MS2 coat protein [1]): 65.2 nM
- apparent KD of MS2 coat protein (MS2 coat protein [2]): 52.2 nM

Sequence: AACAGACAUGAGGAUCACCCAUGUGAGGAUAUCCCAAUCGAUAGAACUAGAAUGACAAGGAGAAGGCACAGCAA [JR_Exc001_Sub005]
- apparent KD of MS2 coat protein (MS2 coat protein [1]): 70.1 nM
- apparent KD of MS2 coat protein (MS2 coat protein [2]): 70.1 nM

Sequence: AACAGGAGAGGAUAUACAUGAGGAUCACCCAUGUAGGAAACAAGCAGAGUACCAAAAAGUAGAAGGCUCAUGGA [Ruby 32]
- apparent KD of MS2 coat protein (MS2 coat protein [1]): 28.1 nM
- apparent KD of MS2 coat protein (MS2 coat protein [2]): 43.1 nM

Sequence: AACAGGUUAGGAUAUAUGUAACAAAUAAAAAAAAUAUAAACAUAGAAGGAACAUGAGGAUCACCCAUGUUAACA [May 29]
- apparent KD of MS2 coat protein (MS2 coat protein [1]): 29.7 nM
- apparent KD of MS2 coat protein (MS2 coat protein [2]): 19.4 nM

Sequence: AACAGUACAGGAUAUACAUGAGGAUCACCCAUGUAAAGGGAAUAAAACUAAAAUAAAAGUAGAAGGGUACUGGA [Moding Maslow revisited (73) 20]
- apparent KD of MS2 coat protein (MS2 coat protein [1]): 50.9 nM
- apparent KD of MS2 coat protein (MS2 coat protein [2]): 92.6 nM

Sequence: AACAGUACAGGAUAUACAUGAGGAUCACCCAUGUGAAAAUUAAGUGGCGUACCACAAAGUAGAAGGGUACUGAA [Moding Maslow Revisited (73) 26]
- apparent KD of MS2 coat protein (MS2 coat protein [1]): 27.9 nM
- apparent KD of MS2 coat protein (MS2 coat protein [2]): 125 nM

Sequence: AACAGUACAGGAUAUACAUGAGGAUCACCCAUGUGACAGAAAUAAAACAAAAAUAAAAGUAGAAGGGUACUGGA [Ruby 42]
- apparent KD of MS2 coat protein (MS2 coat protein [1]): 31 nM
- apparent KD of MS2 coat protein (MS2 coat protein [2]): 61.2 nM

Sequence: AACAGUACAGGAUAUACAUGAGGAUCACCCAUGUGGGAAAAAAGAUCGAGAGAUCCAUGUAGAAGGGUACUGGA [JL In the Red 06]
- apparent KD of MS2 coat protein (MS2 coat protein [1]): 85.5 nM
- apparent KD of MS2 coat protein (MS2 coat protein [2]): 25.6 nM

Sequence: AACAUACAUGAGGAUCACCCAUGUCAGGAUAUGCCGGGUUAGAACCAACUAAAAAAACGUAGAAGGGACAAAAA [Bilbo Confounded 5 - Jieux - Exclusion 1]
- apparent KD of MS2 coat protein (MS2 coat protein [1]): 63.3 nM
- apparent KD of MS2 coat protein (MS2 coat protein [2]): 46.7 nM

Sequence: AACCGACAUGAGGAUCACCCAUGUAAGGAUAUGCAUCCUUCGGCCCGGACCAGAGGAAGCAGAAGGUGCAGGGA [Iscegebia]
- apparent KD of MS2 coat protein (MS2 coat protein [1]): 43.1 nM
- apparent KD of MS2 coat protein (MS2 coat protein [2]): 41.2 nM

Sequence: AACUAGUCAGGAUAUACGAACAUGUCAAAAGACAUGAAGGGACAUGAGGAUCACCCAUGUAGAAGGGACUAGCA [74%, Web mod - With 2 less G's]
- apparent KD of MS2 coat protein (MS2 coat protein [1]): 44 nM
- apparent KD of MS2 coat protein (MS2 coat protein [2]): 148 nM

Sequence: AACUCGUCAGGAUAUGCGCACAGAUAAUACGCUACACAAAUGCAGAAGGGACAUGAGGAUCACCCAUGUAAAUA [JR_Exc004_Sub504]
- apparent KD of MS2 coat protein (MS2 coat protein [1]): 42.6 nM
- apparent KD of MS2 coat protein (MS2 coat protein [2]): 31.2 nM

Sequence: AACUGACAUGAGGAUCACCCAUGUCAGGAUAUGACUUCGAAAAAUAAAAUAAACGAUGUCAGAAGGGACAUGGG [Design 68: Sub-opt O]
- apparent KD of MS2 coat protein (MS2 coat protein [1]): 21.2 nM
- apparent KD of MS2 coat protein (MS2 coat protein [2]): 19 nM

Sequence: AACUGACAUGAGGAUCACCCAUGUCAGGAUAUGACUUGACGAAAAAAAACACGUCAUGUCAGAAGGGACAUGAA [Design 88: Sub-opt YB]
- apparent KD of MS2 coat protein (MS2 coat protein [1]): 15 nM
- apparent KD of MS2 coat protein (MS2 coat protein [2]): 16.9 nM

Sequence: AACUGACAUGAGGAUCACCCAUGUCAGGAUAUGAUAUGUAAAAAAAUAAAAAUACUUAUCAGAAGGGACAUGGG [Design 39: Sub-opt A]
- apparent KD of MS2 coat protein (MS2 coat protein [1]): 18.2 nM
- apparent KD of MS2 coat protein (MS2 coat protein [2]): 20 nM

Sequence: AACUGACAUGAGGAUCACCCAUGUCAGGAUAUGCUUCAUAAAAACAAACAAAAAUGAUGCAGAAGGGACAUGGA [Design 30 :P Sub-opt 6]
- apparent KD of MS2 coat protein (MS2 coat protein [1]): 19.6 nM
- apparent KD of MS2 coat protein (MS2 coat protein [2]): 32.3 nM

Sequence: AACUGGUGAGGAUAUCUGGAUAGGAAAAAGAAAACCUAUCCAGAGAAGGCACAUGAGGAUCACCCAUGUAAAAA [JL cataway mod 9]
- apparent KD of MS2 coat protein (MS2 coat protein [1]): 56 nM
- apparent KD of MS2 coat protein (MS2 coat protein [2]): 51.9 nM

Sequence: AAGAAACAUGAGGAUCACCCAUGUGAGGAUAUACAAAAGAAAAGAAAAGAAAGAAGAAGUAGAAGGCACAAAGG [Djedkare Shemai]
- apparent KD of MS2 coat protein (MS2 coat protein [1]): 22.5 nM
- apparent KD of MS2 coat protein (MS2 coat protein [2]): 20.3 nM

Sequence: AAGAAACAUGAGGAUCACCCAUGUGAGGAUAUCGAAAAGAAAAGAAAAGAAAGAAGAAUGAGAAGGCACAAAGG [Shed—]
- apparent KD of MS2 coat protein (MS2 coat protein [1]): 30.9 nM
- apparent KD of MS2 coat protein (MS2 coat protein [2]): 29.8 nM

Sequence: AAGAAACAUGAGGAUCACCCAUGUGAGGAUAUUCAAGAAAGAAAGAAAGAAAGAAGAAGAAGAAGGCACAAAGG [Lucius Seius Strabo]
- apparent KD of MS2 coat protein (MS2 coat protein [1]): 29 nM
- apparent KD of MS2 coat protein (MS2 coat protein [2]): 32 nM

Sequence: AAGAACCAAGGAUAUACAAAAUAAAAGAAAAGAAAGAAAGAACAUGAGGAUCACCCAUGUAGAAGGUGGAAGAA [Khaankhre Sobekhotep]
- apparent KD of MS2 coat protein (MS2 coat protein [1]): 47.7 nM
- apparent KD of MS2 coat protein (MS2 coat protein [2]): 41.6 nM

Sequence: AAGAACCAAGGAUAUACAUGAGGAUCACCCAUGUAAAAGAAAGAAGGGAAAGAGAAAAGUAGAAGGUGGAAGAA [Djedkaure Shebitku]
- apparent KD of MS2 coat protein (MS2 coat protein [1]): 28.3 nM
- apparent KD of MS2 coat protein (MS2 coat protein [2]): 22.7 nM

Sequence: AAGAACGAAGGAUAUACAUGAGGAUCACCCAUGUAAAAGAAAGAAAGGGAAAAGAAAAGUAGAAGGUCGAAGAA [Sekhemkheperre Osorkon I]
- apparent KD of MS2 coat protein (MS2 coat protein [1]): 28.3 nM
- apparent KD of MS2 coat protein (MS2 coat protein [2]): 31.2 nM

Sequence: AAGAACGGAGGAUAUACAUGAGGAUCACCCAUGUAAAAGAAAGAAGGGAAAGAGAAAAGUAGAAGGCCGAAGAA [Usermaatre-setepenamun Pedubast]
- apparent KD of MS2 coat protein (MS2 coat protein [1]): 28.1 nM
- apparent KD of MS2 coat protein (MS2 coat protein [2]): 50.8 nM

Sequence: AAGAACGUAGGAUAUACUAAAGAAAUGAAAAGAAAUAAAGAACAUGAGGAUCACCCAUGUAGAAGGACGAAGAA [Nebdjefare]
- apparent KD of MS2 coat protein (MS2 coat protein [1]): 29.1 nM
- apparent KD of MS2 coat protein (MS2 coat protein [2]): 25.2 nM

Sequence: AAGAACUCAGGAUAUACAUGAAAGAAAGAAAAGAAAAGAAAACAUGAGGAUCACCCAUGUAGAAGGGAGAAGAA [EteRNA is fun!]
- apparent KD of MS2 coat protein (MS2 coat protein [1]): 39.7 nM
- apparent KD of MS2 coat protein (MS2 coat protein [2]): 30.6 nM

Sequence: AAGAACUCAGGAUAUACUAAAGAAAUGAAAAGAAAGAAAGAACAUGAGGAUCACCCAUGUAGAAGGGAGAAGAA [Qareh Khawoserre]
- apparent KD of MS2 coat protein (MS2 coat protein [1]): 86.4 nM
- apparent KD of MS2 coat protein (MS2 coat protein [2]): 35.4 nM

Sequence: AAGAACUGAGGAUAUACAUGAGGAUCACCCAUGUAAAAGAAAGAAAGGGAAAAGAAAAGUAGAAGGCAGAAGAA [Menmaatre-setpenptah Ramesses XI]
- apparent KD of MS2 coat protein (MS2 coat protein [1]): 51.1 nM
- apparent KD of MS2 coat protein (MS2 coat protein [2]): 59.4 nM

Sequence: AAGAAGCAAGGAUAUACAUGAGGAUCACCCAUGUAAAAGAAAGAAAAGGGAAAGAAAAGUAGAAGGUGCGAAAA [Ruby 70]
- apparent KD of MS2 coat protein (MS2 coat protein [1]): 29.9 nM
- apparent KD of MS2 coat protein (MS2 coat protein [2]): 51.9 nM

Sequence: AAGAAGGAAGGAUAUACAUGAAAGAAAGAAAAGAAAAGAAAACAUGAGGAUCACCCAUGUAGAAGGUCCUAGAA [EteRNA is fun!]
- apparent KD of MS2 coat protein (MS2 coat protein [1]): 39.6 nM
- apparent KD of MS2 coat protein (MS2 coat protein [2]): 80.5 nM

Sequence: AAGAAGGAAGGAUAUACAUGAGGAUCACCCAUGUAAAAGAAAGAGGGAAAAGAGAAAAGUAGAAGGUCCAAGAA [Ptolemy V Epiphanes]
- apparent KD of MS2 coat protein (MS2 coat protein [1]): 26.5 nM
- apparent KD of MS2 coat protein (MS2 coat protein [2]): 30.3 nM

Sequence: AAGAAGGGAGGAUAUACAAAAUAAAAGAAAAGAAAGAAAGAACAUGAGGAUCACCCAUGUAGAAGGUCCAAGAA [Imyremeshaw]
- apparent KD of MS2 coat protein (MS2 coat protein [1]): 48.1 nM
- apparent KD of MS2 coat protein (MS2 coat protein [2]): 71 nM

Sequence: AAGAAGUCAGGAUAUGCUGCUCGUCACAAAAGUGAUGAGUAGCAGAAGGGACAUGAGGAUCACCCAUGUAAAAA [Opal 33]
- apparent KD of MS2 coat protein (MS2 coat protein [1]): 49.1 nM
- apparent KD of MS2 coat protein (MS2 coat protein [2]): 42 nM

Sequence: AAGAAGUGAGGAUAUCGAAGACUGUCGAAAAGACAGUCGAACGAGAAGGCACAUGAGGAUCACCCAUGUGGGAA [Marsurpial 65% 6]
- apparent KD of MS2 coat protein (MS2 coat protein [1]): 77.1 nM
- apparent KD of MS2 coat protein (MS2 coat protein [2]): 171 nM

Sequence: AAGAAGUGAGGAUAUGCUGCUCGUCACUUGCGUGAUGAGUAGCAGAAGGCACAUGAGGAUCACCCAUGUAAAAA [Mat - Exaclusion 4 - Eli mod - D2]
- apparent KD of MS2 coat protein (MS2 coat protein [1]): 34.8 nM
- apparent KD of MS2 coat protein (MS2 coat protein [2]): 45.7 nM
